Assay [1] has as its target transmembrane CX3CL1, expressed in LOX melanoma cells (human) (UniProt P78423). Briefly: cross-linking; isolated membranes of tm-chemokine overexpressing LOX cells (1.5 mg membrane protein, 0.2 M triethanolamine-hydrochloride pH 8.0) with 2 nM recombinant s-chemokine over night at 4°C; 1% paraformaldehyde 1 hr at room temperature; SDS-PAGE and Western blot. (Immunoblotting shows a protein as a band on a membrane.)

The target in assay [2] is T1, transmembrane CXCL16 with a hemagglutinin tag, expressed in LOX melanoma cells (human, UniProt Q9H2A7 30-254).
T1 construct: CXCL16, transmembrane form; expression vector CXCL16-HA in pcDNA3.1 as described in Abel et al., 2004; called full-length tm-chemokine in the results; also called tm-CXCL16; CXCL16-HA; source: LOX melanoma cells, transfected (pcDNA3.1), on cells or in isolated membranes
T1 sequence (looked up): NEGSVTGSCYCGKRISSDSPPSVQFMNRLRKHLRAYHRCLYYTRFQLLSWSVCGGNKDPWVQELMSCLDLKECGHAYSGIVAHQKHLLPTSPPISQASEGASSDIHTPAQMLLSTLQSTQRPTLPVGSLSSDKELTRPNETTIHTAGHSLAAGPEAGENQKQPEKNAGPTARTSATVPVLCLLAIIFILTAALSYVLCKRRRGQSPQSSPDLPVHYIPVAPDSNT
The description is as above. Particulars: one partner purified.

Data on two molecules can be found in article PMC4739769, “Transmembrane chemokines act as receptors in a novel mechanism termed inverse signaling” (eLife, 2016).

Sequence of transmembrane CX3CL1, expressed in LOX melanoma cells (human) (P78423 25-397): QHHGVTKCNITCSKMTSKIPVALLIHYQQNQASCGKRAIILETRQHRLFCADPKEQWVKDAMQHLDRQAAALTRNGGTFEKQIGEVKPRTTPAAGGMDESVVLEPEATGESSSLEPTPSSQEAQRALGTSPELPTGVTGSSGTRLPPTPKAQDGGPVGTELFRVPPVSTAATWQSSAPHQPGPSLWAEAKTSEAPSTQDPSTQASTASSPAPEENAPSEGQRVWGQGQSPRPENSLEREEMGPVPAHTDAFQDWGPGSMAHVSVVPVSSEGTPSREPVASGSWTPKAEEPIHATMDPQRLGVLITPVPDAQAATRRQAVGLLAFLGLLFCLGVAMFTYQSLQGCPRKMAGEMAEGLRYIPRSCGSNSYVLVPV

Consider “soluble CX3CL1 (recombinant human chemokine) (ligand)”, for which the stoichiometry N in assay [1] is 1 to 2.

B1: soluble CXCL16 (recombinant human chemokine) (ligand)
chain: NEGSVTGSCYCGKRISSDSPPSVQFMNRLRKHLRAYHRCLYYTRFQLLSWSVCGGNKDPWVQELMSCLDLKECGHAYSGIVAHQKHLLP
modifications: Cy3 (monoreactive NHS ester) for light microscopy; biotin (One-step antibody biotinylation kit) for flow cytometry; adsorbed to 5 nm gold particles for electron microscopy; no label named for cross-linking and stimulation
With B1, the “stoichiometry N” value in assay [2] is 1 to 2.

For orientation: stoichiometry N means a count of units in the complex or per binding partner.
